Measurements: patent US20230235080A1, “TROPHOBLAST CELL-SURFACE ANTIGEN-2 (TROP-2) ANTIBODIES” (Bionecure Therapeutics, Inc., priority 2020, published 2023)
Where two headings read alike, the source gives them in different places.

How the values were obtained:
[1] = target: T1, human Trop-2 on Trop-2 positive cancer cells (human, UniProt P09758 27-323); assay: cell-based or functional assay
T1 sequence (looked up): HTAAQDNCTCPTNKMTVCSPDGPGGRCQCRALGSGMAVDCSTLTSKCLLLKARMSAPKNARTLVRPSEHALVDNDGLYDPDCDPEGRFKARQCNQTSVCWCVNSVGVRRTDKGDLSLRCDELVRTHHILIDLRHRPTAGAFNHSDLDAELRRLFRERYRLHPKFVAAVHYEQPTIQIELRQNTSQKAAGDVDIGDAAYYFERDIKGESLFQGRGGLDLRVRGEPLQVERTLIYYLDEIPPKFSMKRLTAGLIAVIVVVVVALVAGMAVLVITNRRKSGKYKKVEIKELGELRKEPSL

[2] = target: T2, human Trop-2-ECD-6His fusion protein (human, UniProt P09758 27-274); assay: antigen binding ELISA on immobilized human Trop-2-ECD-6His
T2 construct: Expressed in a human 293 cell line; also called huTrop-2; human Trop-2 antigen
T2 sequence: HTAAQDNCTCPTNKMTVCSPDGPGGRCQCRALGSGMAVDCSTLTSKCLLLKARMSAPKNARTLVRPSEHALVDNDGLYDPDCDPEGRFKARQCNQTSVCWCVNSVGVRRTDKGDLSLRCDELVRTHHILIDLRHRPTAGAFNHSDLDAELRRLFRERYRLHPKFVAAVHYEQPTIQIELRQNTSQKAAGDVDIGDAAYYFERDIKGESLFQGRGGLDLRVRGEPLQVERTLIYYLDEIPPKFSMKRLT

[3] = target: T2, human Trop-2-ECD-6His fusion protein; assay: BLI (Octet), antibody at 8 ug/ml, human Trop-2ECD-6His at 3.125-50 nM
Description: The binding affinity of the purified anti-Trop-2 IgGs to human Trop-2 protein were determined by Octet system based on Bio-Layer Interferometry (BLI) technique. BLI is a layer of molecules attached to the tip of an optic fiber which creates an interference pattern at the detector, any change in the number of molecules bound causes a measured shift in the pattern. Octet system enables real-time analysis for determination of affinity and kinetics from biomolecular interactions in 96-well microplates. […] A1X4 or A1,2X4 antibody was diluted and added to the assigned wells at a final concentration 8 µg/ml. The plate was put in the Octet system and assay was started. The data was analyzed using the Octet Data Acquisition Software (fortebio data analysis 10.0) to calculate an association rate constant Kon, a dissociation rate constant Koff, and a dissociation constant Kd (Kd = Koff/Kon).

[4] = target: T1, human Trop-2 on Trop-2 positive cancer …; assay: cell-based or functional assay; remark: listed apart in the source
[5] = target: T2, human Trop-2-ECD-6His fusion protein; assay: antigen binding ELISA on immobilized human Trop-2-ECD-6His; remark: listed apart in the source
[6] = target: T1, human Trop-2 on Trop-2 positive cancer …; assay: flow cytometry on MDA-MB-468 cells, MFI at 4 °C against the antibody concentration (about 400 to 10000 ng/ml); Kd (µg/ml) printed beside the legend
Description: Internalizationi and degradation of anti-Trop-2 antibodies was measured by flow cytometry. In this study, fluorescent-conjugated secondary antibodies were used to detect the primary antibodies left on after internalization.
Next, either hRS7, or A1X4, or A1,2X4 antibody was added to cells in FACS buffer at concentrations of 400, 1000, 3000, or 10000 ng/ml, respectively, and incubated for 30 minutes at 4° C. After incubation, the cells were washed three times with FACS buffer to removed unbound antibody. The cells were then incubated at 37° C. with 5% CO₂ for antibody internalization. After 2 hours, the cells were dissociated with Trypsin and stained with fluorescent-conjugated goat anti-human IgG secondary antibodies for 30 minutes on ice in dark before being analyzed using Beckman flow cytometry system. The fluorescent intensity and cell binding percentage at each time point were analyzed by Beckman flow cytometric software. The amount of anti-Trop-2 antibodies internalized into cells at each concentration was determined using the following formula: % internalization rate = 100 × (MFI₄°C- MFI₃₇°C) / MFI₄°C

[7] = target: T3, human Trop-2-ECD-6His fusion protein (Homo sapiens, UniProt P09758); assay: Antigen binding assay (ELISA) on immobilized Trop-2-ECD-6His
T3 construct: made in house; host or cells: human 293 cell line
T3 sequence (P09758 with tags, fused parts or gaps): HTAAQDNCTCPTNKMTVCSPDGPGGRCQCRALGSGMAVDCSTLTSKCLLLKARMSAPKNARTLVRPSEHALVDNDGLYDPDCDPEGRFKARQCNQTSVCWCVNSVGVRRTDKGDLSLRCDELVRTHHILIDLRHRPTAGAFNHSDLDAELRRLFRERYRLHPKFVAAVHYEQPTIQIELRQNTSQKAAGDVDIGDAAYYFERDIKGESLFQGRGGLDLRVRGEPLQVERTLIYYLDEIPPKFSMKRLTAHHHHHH

[8] = target: T1, human Trop-2 on Trop-2 positive cancer …; assay: cell-based or functional assay; remark: listed apart in the source
human EPCAM-His = target: T4, human EPCAM-His (human, UniProt P16422 24-265); assay: ELISA on coated antigen, one antibody dilution (concentration not given); on the sheet OD405, detected by GAM/H-AP
T4 construct: also called hEPCAM
T4 sequence (looked up): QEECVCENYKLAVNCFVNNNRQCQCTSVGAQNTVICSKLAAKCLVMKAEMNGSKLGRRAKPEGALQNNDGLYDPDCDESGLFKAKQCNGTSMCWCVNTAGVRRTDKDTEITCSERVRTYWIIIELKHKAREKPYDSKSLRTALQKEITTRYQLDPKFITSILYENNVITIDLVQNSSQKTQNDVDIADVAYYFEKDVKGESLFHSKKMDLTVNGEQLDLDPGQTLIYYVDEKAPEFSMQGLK

mouse Trop-2-His = target: T5, mouse Trop-2-His (mouse, UniProt Q8BGV3 25-270); assay: as above
T5 sequence (looked up): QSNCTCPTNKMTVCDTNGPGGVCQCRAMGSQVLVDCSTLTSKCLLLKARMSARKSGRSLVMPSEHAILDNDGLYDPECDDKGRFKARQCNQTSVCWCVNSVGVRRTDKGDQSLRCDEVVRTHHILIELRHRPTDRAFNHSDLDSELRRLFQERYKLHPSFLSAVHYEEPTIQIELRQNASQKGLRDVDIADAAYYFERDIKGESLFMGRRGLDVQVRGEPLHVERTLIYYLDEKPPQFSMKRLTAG

[9] = tested on: Trop-2 positive breast cancer cell line MDA-MB-468; assay: Internalization assay by flow cytometry (Example 2 protocol); assay type: cell-based, human; conditions: Table 9; second round of humanization of #118-2-5
Description: The chimeric IgG1 #118-2-5 and #125-1-5 were further evaluated by internalization assay using Trop-2 positive breast cancer cell line MDA-MB-468. MDA-MB-468 cells were seeded at 1×10^5 cell/well. Next, the chimeric or benchmark IgGs were added to cells in FACS buffer and incubated for 2 hours at 4° C. After incubation, the cells were washed to remove unbound antibody. The cells were then incubated at 37° C. After 2 hours, the cells were dissociated and stained with fluorescent-conjugated […] secondary antibodies for 30 minutes on ice in dark before being analyzed using Beckman flow cytometry system. The fluorescent intensity and cell binding percentage at each time point were analyzed by Beckman flow cytometric software. The amount of chimeric IgGs internalized into cells was determined using the following formula: % internalization rate = 100 × (MFI4°C - MFI37°C) / MFI4°C.

[10] = Table 10, humanized #125-1-5 antibodies

B1: benchmark antibody hRS7 (antibody, V domains shown)
VH: QVQLQQSGSELKKPGASVKVSCKASGYTFTNYGMNWVKQAPGQGLKWMGWINTYTGEPTYTDDFKGRFAFSLDTSVSTAYLQISSLKADDTAVYFCARGGFGSSYWYFDVWGQGSLVTVSS
VL: DIQLTQSPSSLSASVGDRVSITCKASQDVSIAVAWYQQKPGKAPKLLIYSASYRYTGVPDRFSGSGSGTDFTLTISSLQPEDFAVYYCQQHYITPLTFGAGTKVDIK
[1]
  Internalization rate (flow cytometry, MDA-MB-468 cells): 23.9%
[2]
  EC50: 62 pM
[3]
  Kd: 780 pM
  koff: 0.000244 s⁻¹
[4]
  Internalization rate (flow cytometry, MDA-MB-468 cells): 10.9%
[5]
  EC50: 90 pM
[6]
  Kd: 0.78 µg/mL

B2: humanized #125-1-5 Hu1/Lu5 (antibody, V domains shown)
VH: QVQLVQSGAEVKKPGASVKVSCKASGYTFTTYVIHWVRQAPGQRLEWMGYINPNNDGTKYNEKFKGRVTITRDTSASTAYMELSSLRSEDTAVYYCARPHFETHAMDYWGQGTLVTVSS
VL: DIQMTQSPSSLSASVGDRVTITCKASEDIFNRLAWYQQKPGKAPKLLLYGATSLETGVPSRFSGSGSGTDYTLTISSLQPEDFATYYCQQYWNTWTFGQGTKVEIK
[1]
  Internalization rate (flow cytometry, MDA-MB-468 cells): 49.7%
[7]; [10]
  EC50: 16 pM

B3: A1X4-MMAE antibody-drug conjugate (antibody, V domains shown)
VH: QVQLQESGPGLVKPSETLSLTCTVSGFSLTSYGVNWIRQPPGKGLEWIGVMWAGGSTNYNSALMSRVTISVDTSKNQFSLKLSSVTAADTAVYYCARDENWDGAWFAYWGQGTLVTVSS
VL: DIVMTQSPDSLAVSLGERATINCKSSQSLLNSGTRKNYLAWYQQKPGQPPKLLISWASSRESGVPDRFSGSGSGTDFTLTISSLQAEDVAVYYCKQSYNLFTFGGGTKVEIKR
modifications: mc-vc-PABA-MMAE on the reduced antibody; chain and positions not stated
[8]
  in vitro cytotoxicity IC50, Trop-2-high BxPC-3 cells: < 1000 pM

B4: A1,2X4-MMAE antibody-drug conjugate (antibody, V domains shown)
VH: QVQLQESGPGLVKPSETLSLTCTVSGFSLTSYGVNWIRQPPGKGLEWIGVMWAGGSTNYNSALMSRLTISKDTSKNQFSLKLSSVTAADTAVYYCARDENWDGAWFAYWGQGTLVTVSS
VL: DIVMTQSPDSLAVSLGERATINCKSSQSLLNSGTRKNYLAWYQQKPGQPPKLLISWASSRESGVPDRFSGSGSGTDFTLTISSLQAEDVAVYYCKQSYNLFTFGGGTKVEIKR
modifications: mc-vc-PABA-MMAE on the reduced antibody; chain and positions not stated
[8]
  in vitro cytotoxicity IC50, all cells that express different levels of Trop-2: < 1000 pM

B5: murine-human chimeric IgG1 #118-2-5 (antibody, V domains shown)
VH: QVQLKQSGPGLVAPSQSLSITCTVSGFSLTSYGVNWIRQPPGKGLEWLGVMWAGGSTNYNSALMSRLSISKDNSKSQVFLKMNSLQTDDTGMYYCARDENWDGAWFAYWGQGTLVTVSA
VL: DIQMTQSPSSLAVSAGEKVTMSCKSSQSLLNSGTRKNYLAWYQQKPGQSPKLLISWASSRESGVPDRFTGSGSGTDFTLTISSVQAEDLAVYYCKQSYNLFTFGGGTKLELKR
notes: Chimeric IgG1 expressed in HEK293-6E cells
Human EPCAM-His
  binding result: no binding
Mouse Trop-2-His
  binding result: no binding

B6: HuA/Lu(X3): humanized #118-2-5, heavy chain HuA (SEQ ID NO: 23) with light chain Lu(X3) (SEQ ID NO: 36) (antibody, V domains shown)
VH: QVQLQESGPGLVKPSETLSLTCTVSGFSLTSYGVNWIRQPPGKGLEWIGVMWAGGSTNYNSALMSRVTISVDTSKNQFSLKLSSVTAADTAVYYCARDENWDGAWFAYWGQGTLVTVSS
VL: DIVMTQSHKFISTSVGDRVSITCKASQDVDTAVAWYQQKPGQSPKLLIHWASTRHTGVPDRFTGGGSGTDFTLTLSNVQSEDLADYFCQQYSTFPWTFGGGTRLEIK
[7]; Table 8, second round of humanization of #118-2-5
  EC50: 450 pM
[9]
  Internalization rate: 13.22%

B7: Hu(A1)/LuX: humanized #118-2-5, heavy chain Hu(A1) (SEQ ID NO: 29) with light chain LuX (SEQ ID NO: 27) (antibody, V domains shown)
VH: QVQLQESGPGLVKPSETLSLTCTVSGFSLTSYGVNWIRQPPGKGLEWIGVMWAGGSTNYNSALMSRVTISVDTSKNQFSLKLSSVTAADTAVYYCARDENWDGAWFAYWGQGTLVTVSS
VL: DIVMTQSPDSLAVSLGERATINCKSSQSLLNSGTRKNYLAWYQQKPGQPPKLLIYWASSRESGVPDRFSGSGSGTDFTLTISSLQAEDVAVYYCKQSYNLFTFGGGTKVEIK
[9]
  Internalization rate: 56.01%

B8: #125-1-5 mouse H14-4/L3-4: parental mouse #125-1-5 heavy/light chains H14-4/L3-4, comparator of the humanized IgGs (antibody, V domains shown)
VH: QIQLVQSGPELVKPGASVKMSCKASGYTFTTYVIHWVKQKPGQGLEWIGYINPNNDGTKYNEKFKGKATLISDKSSTTAYMEVRGLTSEDSAVYYCARPHFETHAMDYWGQGTSVTVSS
VL: DIQMTQSPSSFSVSLGDSVTITCKASEDIFNRLAWYQQKPGNAPRLLISGATSLETGVPSRFSGGGSGKEYTLSITSLQNEDVATYYCQQYWNTWTFGGGTKLEIK
[7]; [10]
  EC50: 4 pM
